Data on 5 molecules can be found in patent US6927286B1, “Bleomycin gene cluster components and their uses” (The Regents of the University of California, priority 1999, dated 2005).

Data set [1] addresses apo-BlmI (type II peptidyl carrier protein BlmI, apo-form, produced from pBS2) (Streptomyces verticillus ATCC15003). As to the kind of experiment: cell-based or functional assay.
The subject of data set [2] is T1, holo-BlmI (4'-phosphopantetheinylated BlmI, produced from pBS2).
T1 sequence: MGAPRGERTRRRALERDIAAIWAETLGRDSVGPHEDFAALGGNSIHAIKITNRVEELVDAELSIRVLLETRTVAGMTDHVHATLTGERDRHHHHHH

For data set [3], the system named is T2, apo-BlmI (type II peptidyl carrier protein BlmI, apo-form, produced from pBS2).
T2 sequence: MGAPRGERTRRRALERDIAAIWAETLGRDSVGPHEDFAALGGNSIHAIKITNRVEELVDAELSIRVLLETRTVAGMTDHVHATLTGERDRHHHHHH

For a further data set, the target named is T3, TcmM (Streptomyces glaucescens, UniProt P12884).
T3 construct: His6 (N); His6 (C); made in house; host or cells: E. coli BL21(DE3) (pET28a-TcmM)
T3 sequence (P12884 1-83): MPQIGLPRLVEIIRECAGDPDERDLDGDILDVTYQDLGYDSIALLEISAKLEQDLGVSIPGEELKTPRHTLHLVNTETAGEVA
T3 sequence (Q9F0Q6 1-246 partner): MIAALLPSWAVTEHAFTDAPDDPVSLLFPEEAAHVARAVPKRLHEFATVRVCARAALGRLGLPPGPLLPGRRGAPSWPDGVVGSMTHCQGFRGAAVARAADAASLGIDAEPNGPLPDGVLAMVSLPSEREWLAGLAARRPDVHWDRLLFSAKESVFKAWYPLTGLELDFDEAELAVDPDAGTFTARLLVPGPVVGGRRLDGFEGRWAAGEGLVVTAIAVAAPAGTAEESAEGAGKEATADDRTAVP
The data set is described as follows: In vitro phosphopantetheinylation assay of PptA. In kind it is biochemical, S. glaucescens. As to conditions: (3H)-(pantetheinyl)-CoASH, autoradiography.

Another data set relates to BlmI. As to the kind of experiment: In vitro phosphopantetheinylation assay of PptA. As to conditions: (3H)-(pantetheinyl)-CoASH, autoradiography.
In a further data set the test system is BlmVIII. The data set is described as follows: In vitro phosphopantetheinylation assay of PptA. In kind it is biochemical, S. verticillus. As to conditions: (3H)-(pantetheinyl)-CoASH, autoradiography.
A further data set relates to MBlmX-2. The data set is described as follows: In vitro phosphopantetheinylation assay of PptA. As to conditions: (3H)-(pantetheinyl)-CoASH, autoradiography.
Another data set addresses T4, Gsp PPTase (Aneurinibacillus migulanus, UniProt P40683).
T4 construct: expressed in transfected cells; host or cells: E. coli OG7001 (pBS2/pDPT-Gsp)
T4 sequence (P40683 whole entry, looked up): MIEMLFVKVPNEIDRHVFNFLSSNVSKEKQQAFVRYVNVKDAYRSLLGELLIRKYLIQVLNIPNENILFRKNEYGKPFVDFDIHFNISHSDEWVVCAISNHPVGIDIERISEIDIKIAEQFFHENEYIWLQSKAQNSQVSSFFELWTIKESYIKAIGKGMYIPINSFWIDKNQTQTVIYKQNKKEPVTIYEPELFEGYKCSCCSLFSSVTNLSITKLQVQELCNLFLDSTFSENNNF
As to the kind of experiment: In vivo 4′-phosphopantetheinylation of BlmI co-expressed with gsp in E. coli OG7001. The format is cell-based. As to conditions: E. coli OG7001(pBS2/pDPT-Gsp), HPLC analysis. An excerpt:
(§1) To examine 4′-phosphopantetheinylation of BlmI in vivo, we chose E. coli OG7001 as the expression host, which is a β-alanine auxotroph derived from E. coli BL21(DE3) by P1 co-transduction of the panD mutation from E. coli SJ16 (Epple et al. (1998) J. Bacteriol. 180: 4950-4954). Upon introduction of pBS2 into E. coli OG7001, blmI was exceptionally well expressed and the overproduced BlmI protein was readily purified. […] To circumvent the poor endogenous PPTase activity, we next co-expressed blmI with the gsp gene, which was isolated from the gramicidin S producer Bacillus brevis, and encoded a PPTase that was known to 4′-phosphopantetheinylate heterologously produced PCPs in E. coli (Lambalot et al. (1996) Chem. Biol. 3: 923-936; Ku et al. (1997) Chem. Biol. 4: 203-207). We co-transformed pDPT-Gsp, in which the expression of the gsp gene was under the control of the T5/Lac promoter (Ku et al. (1997) Chem. Biol. 4: 203-207), and pBS2 into E. coli OG7001. BlmI was again very well expressed and the resulting BlmI protein was similarly purified. […]
(§2) Samples of BlmI (30-70 μg) purified from E. coli OG7001(pBS2) or E. coli OG7001(pBS2/pDPT-Gsp) were analyzed on a Nova-Pak C18 column (5 mm×10, Waters, Milford, Mass.) using a Rainin DMAX HPLC unit. […]

Data set [4] relates to E. coli endogenous PPTases. As to the kind of experiment: In vivo 4′-phosphopantetheinylation of BlmI in E. coli OG7001 without Gsp. The format is cell-based. The note with it: E. coli OG7001(pBS2), HPLC analysis.
Excerpt: as §1, §2

The target in data set [5] is T5, apo-BlmI (type II peptidyl carrier protein BlmI, apo-form, produced from pBS2).
T5 chain: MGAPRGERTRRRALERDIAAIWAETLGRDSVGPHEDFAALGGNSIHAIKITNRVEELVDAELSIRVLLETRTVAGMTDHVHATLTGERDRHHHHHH

The next data set relates to apo-BlmI. As to the kind of experiment: In vitro 4′-phosphopantetheinylation of BlmI by Sfp with [3H-pantetheine]-CoA. In kind it is biochemical, Streptomyces verticillus. The note with it: autoradiographic analysis. How it is done:
To investigate 4′-phosphopantetheinylation of BlmI in vitro, we chose the Sfp protein as the preferred PPTase, which had been isolated before from the surfactin producer Bacillus subtilis (Nakano et al. (1992) Mol. Gen. Genet. 232: 313-321).
Expression of sfp in E. coli MV1190(pUC8-Sfp), purification of the Sfp PPTase to homogeneity, and 4′-phosphopantetheinylation of apo-BlmI by Sfp in vitro were carried out essentially according to literature procedures (Quadri et al. (1998) Biochemistry 37: 1585-1595; Nakano et al. (1992) Mol. Gen. Genet. 232: 313-321). A typical 100 μl assay solution contained 26 μM apo-BlmI, 2.9 μM Sfp, 25 μM [^3H-pantetheine]-CoA (0.9 μCi, 40 Ci/mM), 10 mM MgCl2, and 5 mM DTT, in 75 mM MES/NaOAc buffer, pH 6.0. After 30 min incubation at 37° C., the assays were stopped by addition of 5 μl of bovine serum albumin (0.2 mg/ml) and 0.9 ml of cold 10% (v/v) trichloroacetic acid (TCA). The precipitated proteins were collected by centrifugation at 14,000 rpm, 20 min, 4° C. (Eppendorf 5415C centrifuge), washed with 10% TCA three times, and resolved by SDS-PAGE on 15% gel. The ^3H-activity incorporated into holo-BlmI was similarly determined by autoradiography as described for in vivo labeling of holo-Blm with [3-^3H]-β-alanine.

Sequence of MBlmX-2 (as listed by the source, one chain of several): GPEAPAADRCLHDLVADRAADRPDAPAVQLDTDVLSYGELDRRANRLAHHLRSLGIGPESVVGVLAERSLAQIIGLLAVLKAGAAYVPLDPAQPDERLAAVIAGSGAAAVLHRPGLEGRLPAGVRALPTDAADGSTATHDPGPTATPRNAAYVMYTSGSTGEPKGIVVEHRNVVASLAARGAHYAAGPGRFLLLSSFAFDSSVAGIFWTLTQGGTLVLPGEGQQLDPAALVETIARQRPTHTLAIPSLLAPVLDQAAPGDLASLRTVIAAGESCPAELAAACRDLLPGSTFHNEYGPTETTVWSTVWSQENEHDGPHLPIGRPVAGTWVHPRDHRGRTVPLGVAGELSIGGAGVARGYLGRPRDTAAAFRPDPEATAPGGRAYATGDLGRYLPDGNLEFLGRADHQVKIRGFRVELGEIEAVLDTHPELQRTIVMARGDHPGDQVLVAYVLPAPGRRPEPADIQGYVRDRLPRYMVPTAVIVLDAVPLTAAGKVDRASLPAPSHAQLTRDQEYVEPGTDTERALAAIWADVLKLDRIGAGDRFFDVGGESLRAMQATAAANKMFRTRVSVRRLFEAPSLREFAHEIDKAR
Sequence of BlmVIII (as listed by the source, one chain of several): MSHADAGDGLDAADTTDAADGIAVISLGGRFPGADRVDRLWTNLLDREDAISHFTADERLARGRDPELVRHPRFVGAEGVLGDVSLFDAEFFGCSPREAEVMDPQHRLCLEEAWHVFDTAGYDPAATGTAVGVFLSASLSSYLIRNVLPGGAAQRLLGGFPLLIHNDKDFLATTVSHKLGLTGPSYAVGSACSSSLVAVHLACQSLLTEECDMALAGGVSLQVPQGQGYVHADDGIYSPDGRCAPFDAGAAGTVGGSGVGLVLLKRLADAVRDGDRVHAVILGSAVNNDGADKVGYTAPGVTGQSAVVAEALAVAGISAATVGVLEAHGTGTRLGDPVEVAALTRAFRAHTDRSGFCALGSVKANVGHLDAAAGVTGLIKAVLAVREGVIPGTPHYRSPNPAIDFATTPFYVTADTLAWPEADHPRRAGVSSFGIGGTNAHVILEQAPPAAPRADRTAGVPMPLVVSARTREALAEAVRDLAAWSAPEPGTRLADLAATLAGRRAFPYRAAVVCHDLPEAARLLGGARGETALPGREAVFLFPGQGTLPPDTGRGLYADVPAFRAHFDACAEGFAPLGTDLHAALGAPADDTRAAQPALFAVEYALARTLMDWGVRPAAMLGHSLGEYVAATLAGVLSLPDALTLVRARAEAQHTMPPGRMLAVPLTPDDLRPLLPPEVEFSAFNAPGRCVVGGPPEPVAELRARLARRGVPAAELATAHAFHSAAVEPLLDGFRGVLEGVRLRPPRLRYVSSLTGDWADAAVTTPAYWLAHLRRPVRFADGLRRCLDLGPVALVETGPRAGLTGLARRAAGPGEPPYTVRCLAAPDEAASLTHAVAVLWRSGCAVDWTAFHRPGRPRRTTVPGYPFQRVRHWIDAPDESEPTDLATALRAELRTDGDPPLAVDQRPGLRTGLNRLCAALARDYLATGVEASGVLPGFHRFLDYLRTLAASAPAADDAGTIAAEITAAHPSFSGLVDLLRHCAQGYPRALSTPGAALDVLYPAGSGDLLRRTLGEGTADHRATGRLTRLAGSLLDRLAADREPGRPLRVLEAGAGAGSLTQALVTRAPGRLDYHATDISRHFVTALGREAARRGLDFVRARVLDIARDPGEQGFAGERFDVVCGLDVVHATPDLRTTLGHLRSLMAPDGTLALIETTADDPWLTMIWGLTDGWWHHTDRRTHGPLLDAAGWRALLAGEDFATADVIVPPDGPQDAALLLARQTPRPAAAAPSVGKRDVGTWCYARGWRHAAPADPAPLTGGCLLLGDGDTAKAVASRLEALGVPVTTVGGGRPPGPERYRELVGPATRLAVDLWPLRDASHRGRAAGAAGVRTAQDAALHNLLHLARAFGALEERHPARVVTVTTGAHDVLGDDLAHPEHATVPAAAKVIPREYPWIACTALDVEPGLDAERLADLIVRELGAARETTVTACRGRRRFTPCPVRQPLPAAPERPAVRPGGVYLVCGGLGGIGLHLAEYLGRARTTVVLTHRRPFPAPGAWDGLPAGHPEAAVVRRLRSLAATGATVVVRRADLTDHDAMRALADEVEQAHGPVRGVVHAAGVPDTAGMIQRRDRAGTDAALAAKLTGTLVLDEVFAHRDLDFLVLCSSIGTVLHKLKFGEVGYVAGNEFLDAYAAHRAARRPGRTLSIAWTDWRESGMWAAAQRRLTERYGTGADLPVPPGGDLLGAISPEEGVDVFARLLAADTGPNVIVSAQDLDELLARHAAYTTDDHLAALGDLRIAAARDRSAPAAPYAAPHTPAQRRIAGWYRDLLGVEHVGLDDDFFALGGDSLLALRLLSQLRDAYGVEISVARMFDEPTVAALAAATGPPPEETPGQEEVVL

As to “Gsp PPTase from the gramicidin S producer Bacillus brevis (from UniProt P40683 1-237) (enzyme)”, the in vivo 4′-phosphopantetheinylation on co-expression with gsp, HPLC analysis in data set [1] was above 60%.

Consider “Val-A (adenylation domain of a type I NRPS from a gene cluster of Sv ATCC15003 unrelated to BLM biosynthesis)”, for which the “in vitro aminoacylation in trans with L-[^14C(U)]valine and ATP, SDS-PAGE and autoradiography” value was “the holo-BlmI was specifically labeled by L-[^14C(U)]valine in the presence of Val-A” in data set [2]; “nor incubation of L-[^14C(U)]valine with the Val-A and apo-BlmI proteins, resulted in the detection of ^14C-labeled BlmI protein” in data set [3].

B1: PptA: phosphopantetheinyl transferase of 246 amino acids encoded by pptA from S. verticillus ATCC15003 (protein)
chain: MIAALLPSWAVTEHAFTDAPDDPVSLLFPEEAAHVARAVPKRLHEFATVRVCARAALGRLGLPPGPLLPGRRGAPSWPDGVVGSMTHCQGFRGAAVARAADAASLGIDAEPNGPLPDGVLAMVSLPSEREWLAGLAARRPDVHWDRLLFSAKESVFKAWYPLTGLELDFDEAELAVDPDAGTFTARLLVPGPVVGGRRLDGFEGRWAAGEGLVVTAIAVAAPAGTAEESAEGAGKEATADDRTAVPHHHHHH
Take B1: in the data set with TcmM, the “PPTase activity on type II ACP” value is reported as “able to posttranslationally modified”. In addition, the “PPTase activity on type II PCP” value in the data set on BlmI is on record as “robust phosphopantetheinylation activity”. Also, the “PPTase activity on type I ACP” value in the data set with BlmVIII is listed as “able to posttranslationally modified”. Also, in the data set on MBlmX-2, the “PPTase activity on type I PCP” value is on record as “robust phosphopantetheinylation activity”.

B2: BlmI: type II peptidyl carrier protein of 90 amino acids encoded by blmI (protein)
chain: MGAPRGERTRRRALERDIAAIWAETLGRDSVGPHEDFAALGGNSIHAIKITNRVEELVDAELSIRVLLETRTVAGMTDHVHATLTGERDRHHHHHH
modifications: left off: small tags and cut ends
notes: type II peptidyl carrier protein of 90 amino acids encoded by blmI
For the molecule B2, the “overproduced BlmI modified into the holo-BlmI protein” value in the data set with Gsp PPTase was “at least 60%”. In data set [4], the “form of purified BlmI” value is “essentially in the apo-form”.

B3: Sfp PPTase from the surfactin producer Bacillus subtilis (protein)
chain: MKIYGIYMDRPLSQEENERFMSFISPEKREKCRRFYHKEDAHRTLLGDVLVRSVISRQYQLDKSDIRFSTQEYGKPCIPDLPDAHFNISHSGRWVICAFDSQPIGIDIEKTKPISLEIAKRFFSKTEYSDLLAKDKDEQTDYFYHLWSMKESFIKQEGKGLSLPLDSFSVRLHQDGQVSIELPDSHSPCYIKTYEVDPGYKMAVCAAHPDFPEDITMVSYEELL
As for B3, in [5], the “in vitro 4′-phosphopantetheinylation with [^3H-pantetheine]-CoA, autoradiography” value is “the apo-BlmI was quantitatively labeled by [^3H-pantetheine]-CoA, and no labeling was observed in the absence of either the apo-BlmI or the Sfp PPTase protein”. In the data set on apo-BlmI, the “transfer of 4′-phosphopantetheine group from CoA to apo-BlmI” value is “can recognize apo-BlmI as a substrate”.
